Key:
[1] = tested on: peripheral blood mononuclear cells (PBMCs); experiment: One-way mixed lymphocyte reaction (MLR); format: cell-based, human; conditions: for Proliferated cells (% of all CPD stained), Average: 60 mg tissue, 250K cells, 5 days; for Stimulation Index: vs PBMCs + saline
Procedure: (§1) Cancellous and cortical bone tissue samples were obtained, processed and combined, to produce LyoGraft Bone Grafts. From each donor, cancellous tissue samples comprising cancellous bone were recovered and processed to provide cancellous granules, and cortical bone tissue samples were recovered and processed to provide cortical fibers. Quantities of cancellous granules and cortical fibers derived from the same donor were measured and combined to produce three test samples per donor, each of which contained about 40 wt % cancellous granules and about 60 wt % cortical fibers, the wt % being based on the total weight of the combined cancellous granules and cortical fibers of each sample. The total weights of the test samples (i.e., each comprising both cancellous granules and cortical fibers) ranged from 1.3 g to 1.6 g. The test samples were preserved after contact with protectants in solution, in accordance with the methods described hereinabove. Peripheral blood mononuclear cells (PBMCs) were procured from three unique blood donors in order to test for a one-way and two-war mixed lymphocyte reaction (MLR) assay. In a one-way set up, PBMCs are exposed to a test article, the lyopreserved tissue samples, and PBMC stimulation or lack thereof is assessed. In a two-way set up, mismatched blood donors are exposed to one another, and an ongoing reaction is stimulated. This ongoing reaction is then put in presence of a test article, the lyopreserved tissue samples, and stimulation or inhibition of this ongoing reaction are assessed. […] Two-way MLR testing was performed on three lyopreserved donor lots to assess the inhibitory or stimulatory effects of an ongoing/developing immunogenic reaction between two mismatched blood donors.
• 11. Blood was obtained from three unique donors and PBMCs were isolated. • 12. PBMCs were stained with a tracking dye, CPD-670, and added to 96-well round bottom culture plates for one-way MLR assay. • 12.1 This dye is used to determine whether or not an immune response has been induced. If there is an immune reaction, cells will proliferate in response to a stimulator, in this case lyopreserved tissue, and dilute the CPD-670 stain. The dilution of the stain decreases the fluorescence signal which will be used to measure any differences across test samples compared to the saline negative control and concanavalin A positive control. • 13. Lyopreserved samples are prepared by adding 30 mL of sterile saline USP to smaller units (Donor 1 and 3) or filling 2 oz jar to the top (60 mL) with saline for larger units (Donor 2), incubating for 2 mins, decanting, and tap-drying with sterile gauze. • 14. 60 mg of lyopreserved tissue per donor and 20 uL of saline were added in tripliciate for each PBMC donor in 96 well plates. • 14.1 Saline is used as a negative control. • 15. PBMCs were added to each test group (250K cells) and incubated for 5 days at 37° C. in 5% CO2 in humidifier incubator. • 16. To calculate % proliferation, cells with decreased dye fluorescent signal were compared to the total number of positively stained cells. • 17. Concanavalin A (ConA) was used as a stimulation positive control to ensure that cells (PBMC) were in good condition to proliferate. • 18. Stimulation Index (SI) was calculated as proliferating cell percentage from wells with PBMCs+lyopreserved tissue sample divided by proliferating cell percentage from PBMCs+saline.

[2] = tested on: mismatched peripheral blood mononuclear cells (PBMCs); experiment: Two-way mixed lymphocyte reaction (MLR); format: cell-based, human; conditions: for Stimulation Index: vs same MLR + saline
Procedure: as §1
• 19. Cells (PBMC) from each of two donors were added to wells of 96-well round bottom culture plates. • 20. Only cells from one of the two donors were stained with tracking dye, CPD-670, considered the responder cells. The other donor cells were left unstained, considered the inducer cells. • 21. Assay was repeated using 3 different combinations of responder/inducer cells. • 22. The amount of proliferating responder cells indicates an immune reaction induced by the mismatched inducer cells and is shown as cells with reduced dye content after six days of co-incubation. • 23. Virtuos samples are prepared by adding 30 mL of sterile saline USP to smaller units (Donor 1 and 3) or filling 2 oz jar to the top (60 mL) with saline for larger units (Donor 2), incubating for 2 mins, decanting, and tap-drying with sterile gauze. • 24. 60 mg of lyopreserved tissue per donor and 20 uL of saline were added in triplicate for each PBMC donor in 96 well plates. • 24.1 Saline is used as a negative control. • 25. PBMCs from two mismatched blood donors were added to each test group (250K cells per blood donor) and incubated for 5 days at 37° C. in 5% CO2 in humidifier incubator. • 26. Concanavalin A (ConA) was used as a stimulation positive control to ensure that cells (PBMC) were in good condition to proliferate. • 27. Stimulation Index (SI) was calculated as proliferating cell percentage from wells with two mismatched donors with lyopreserved tissue divided by proliferating cell percentage from wells with the same mismatched donor cells treated with saline.

[3] = Donor A-CPD + Donor B-Unstained MLR
[4] = Donor B-CPD + Donor C-Unstained MLR
[5] = Donor C-CPD + Donor A-Unstained MLR

Substance: Concanavalin A [ConA]
- Proliferated cells (% of all CPD stained), Average ([1]; PBMC Donor A): 45.2%
- Stimulation Index ([1]; PBMC Donor A): 28.0
- Proliferated cells (% of all CPD stained), Average ([1]; PBMC Donor B): 61.5%
- Stimulation Index ([1]; PBMC Donor B): 100.3
- Proliferated cells (% of all CPD stained), Average ([1]; PBMC Donor C): 60.6%
- Stimulation Index ([1]; PBMC Donor C): 155.4
- Proliferated cells (% of all CPD stained), Average [2, 3]: 57.8%
- Stimulation Index [2, 3]: 8.1
- Proliferated cells (% of all CPD stained), Average [2, 4]: 39.5%
- Stimulation Index [2, 4]: 5.3
- Proliferated cells (% of all CPD stained), Average [2, 5]: 50.6%
- Stimulation Index [2, 5]: 4.9
